The numbers were not newly measured in PMC7768908 (Biochemistry, 2020), which cites them from elsewhere.

The subject of series [1] is cytoplasmic tail of MT1-MMP. The following applies: ref [13].
Another series has as its system MT1-MMP. As to conditions: by binding the cytoplasmic tail of MT1-MMP; ref [13].

B1: ADI1 gene product: ADI1 gene encoding HsARD; human acireductone dioxygenase (protein, UniProt Q9BV57 1-179, looked up)
Acireductone dioxygenase: MVQAWYMDDAPGDPRQPHRPDPGRPVGLEQLRRLGVLYWKLDADKYENDPELEKIRRERNYSWMDIITICKDKLPNYEEKIKMFYEEHLHLDDEIRYILDGSGYFDVRDKEDQWIRIFMEKGDMVTLPAGIYHRFTVDEKNYTKAMRLFVGEPVWTAYNRPADHFEARGQYVKFLAQTA
Turning to B1, in series [1], the “binding to the cytoplasmic tail of MT1-MMP” value is on record as “binds to the cytoplasmic tail of MT1-MMP”. For the same molecule, in the series on MT1-MMP, the “effect on MT1-MMP protease activity” value is “suppressing protease activity”.
